Data on two molecules can be found in paper doi:10.1101/2025.09.11.675549, “CCDC103-mediated assembly of the R2C complex links RUVBL1-RUVBL2 to Primary Ciliary Dyskinesia” (bioRxiv, 2025).

Experiment [1] has as its target T1, RUVBL1-RUVBL2-strep complex (6XHIS-RUVBL1-RUVBL2-strep) (human, UniProt Q9Y265 1-456; Q9Y230 1-463).
T1 construct: RUVBL1 (RuvB like 1), human, UniProt Q9Y265; RUVBL2 (RuvB like 2), human, UniProt Q9Y230; also called RUVBL1-RUVBL2 complex; hetero-hexameric ring; source: E. coli Rosetta (DE3) pLysS (pRSETA and pCDF Duet 1), purified by a previously defined protocol; not shown: Strep, C-terminal, kept; copies: 3 + 3
Put plainly: pull-down; 10 uM GST-CCDC103 RBD and 10 uM RUVBL1-RUVBL2 on GST beads; 50mM HEPES pH 7.5, 140mM NaCl, 0.001% Tween 20; 45 min at 4 C; three washes; SDS-PAGE. The following applies: both partners purified.

The target in experiment [2] is T1, RUVBL1-RUVBL2-strep complex …. Put plainly: pull-down; RUVBL1-RUVBL2-strep held on Streptavidin Mag Sepharose beads, full-length CCDC103 as prey; 50mM HEPES pH 7.5, 140mM NaCl, 0.001% Tween 20; eluted with 2.5mM desthiobiotin; SDS-PAGE. The conditions noted are these: both partners purified.

T1 sequence (Q9Y265 whole entry, chain 1 of 2): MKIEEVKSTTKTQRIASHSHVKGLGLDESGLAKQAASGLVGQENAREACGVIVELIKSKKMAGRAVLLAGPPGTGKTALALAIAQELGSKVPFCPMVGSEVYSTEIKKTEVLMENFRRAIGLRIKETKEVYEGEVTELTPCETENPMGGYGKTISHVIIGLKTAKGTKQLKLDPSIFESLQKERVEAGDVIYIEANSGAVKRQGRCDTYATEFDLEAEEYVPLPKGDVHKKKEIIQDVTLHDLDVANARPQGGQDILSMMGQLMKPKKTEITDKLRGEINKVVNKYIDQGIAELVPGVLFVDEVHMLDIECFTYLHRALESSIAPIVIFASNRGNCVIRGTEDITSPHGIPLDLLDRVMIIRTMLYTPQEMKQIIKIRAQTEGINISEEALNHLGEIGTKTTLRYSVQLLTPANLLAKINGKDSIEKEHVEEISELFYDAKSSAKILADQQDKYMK
T1 sequence (Q9Y230 whole entry, chain 2 of 2): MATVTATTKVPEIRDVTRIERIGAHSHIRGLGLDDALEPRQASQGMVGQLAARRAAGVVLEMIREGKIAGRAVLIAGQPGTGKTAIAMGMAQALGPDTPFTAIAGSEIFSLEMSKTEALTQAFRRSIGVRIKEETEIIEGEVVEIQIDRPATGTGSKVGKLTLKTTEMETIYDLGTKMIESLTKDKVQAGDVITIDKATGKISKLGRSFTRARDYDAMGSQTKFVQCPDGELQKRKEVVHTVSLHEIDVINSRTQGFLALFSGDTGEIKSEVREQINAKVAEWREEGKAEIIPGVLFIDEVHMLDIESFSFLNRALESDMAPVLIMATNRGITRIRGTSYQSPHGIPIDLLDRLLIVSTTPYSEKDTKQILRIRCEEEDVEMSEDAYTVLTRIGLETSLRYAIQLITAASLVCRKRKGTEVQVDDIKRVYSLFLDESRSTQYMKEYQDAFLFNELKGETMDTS

B1: GST-tagged RBD domain of CCDC103 (domain or fragment, human, UniProt Q8IW40 100-242, looked up)
chain: ETSADFYRDWRRHLPSGPERYQALLQLGGPRLGCLFQTDVGFGLLGELLVALADHVGPADRAAVLGILCSLASTGRFTLNLSLLSRAERESCKGLFQKLQAMGNPRSVKEGLSWEEQGLEEQSGGLQEEERLLQELLELYQVD
notes: CCDC103, human, UniProt Q8IW40, RBD without the first 99 residues (lacks N-terminal 1-99); also called GST-CCDC103 RBD; source: E. coli Rosetta (DE3) pLysS (pGEX6-P1), purified (glutathione Sepharose 4B); not shown: GST, N-terminal, kept
B1: the binding result in experiment [1] is given as “binds”.

B2: full-length CCDC103 (natural protein, human, UniProt Q8IW40 1-242, looked up)
chain: MERNDIINFKALEKELQAALTADEKYKRENAAKLRAVEQRVASYEEFRGIVLASHLKPLERKDKMGGKRTVPWNCHTIQGRTFQDVATEISPEKAPLQPETSADFYRDWRRHLPSGPERYQALLQLGGPRLGCLFQTDVGFGLLGELLVALADHVGPADRAAVLGILCSLASTGRFTLNLSLLSRAERESCKGLFQKLQAMGNPRSVKEGLSWEEQGLEEQSGGLQEEERLLQELLELYQVD
notes: CCDC103 (DNAAF19), human, UniProt Q8IW40, full length; or Sf9, Flag-tagged) stood in the strep pull-down, so the tag is left open; also called CCDC103FL; DNAAF19
Take B2: the binding result in experiment [2] is “binds”.
